For test [1], the target named is T1, 4H349-bH.
T1 chain: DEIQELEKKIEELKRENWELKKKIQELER
In words: two-hybrid library CCNG1.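 Also: natural log of median RNA to DNA barcode read ratio; higher means stronger binding.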

In test [2] the target is T2, 4H932-bH.
T2 chain: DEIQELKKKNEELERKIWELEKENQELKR
In words: two-hybrid library CCNG1.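 Also: natural log of median RNA to DNA barcode read ratio; higher means stronger binding.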

The target in test [3] is T3, 4H56-bH.
T3 chain: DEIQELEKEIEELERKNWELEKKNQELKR
In words: two-hybrid library CCNG1.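 Also: natural log of median RNA to DNA barcode read ratio; higher means stronger binding.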

The target of test [4] is T4, 4H949-bH.
T4 chain: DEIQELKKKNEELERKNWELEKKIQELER
In words: two-hybrid library CCNG1.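 Also: natural log of median RNA to DNA barcode read ratio; higher means stronger binding.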

Test [5] addresses T5, 4H3381-bH.
T5 chain: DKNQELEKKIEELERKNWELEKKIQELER
In words: two-hybrid library CCNG1.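 Also: natural log of median RNA to DNA barcode read ratio; higher means stronger binding.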

Test [6] addresses T6, 4H730-bH.
T6 chain: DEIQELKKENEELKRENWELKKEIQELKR
In words: two-hybrid library CCNG1.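 Also: natural log of median RNA to DNA barcode read ratio; higher means stronger binding.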

The target in test [7] is T7, 4H796-bH.
T7 chain: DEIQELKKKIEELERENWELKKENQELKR
In words: two-hybrid library CCNG1.

Test [8] concerns the target T8, P8mS.
T8 chain: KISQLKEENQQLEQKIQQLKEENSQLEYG
In words: two-hybrid library CC1. The settings on record: mean of both orientations.

In test [9] the target is T9, P8.
T9 chain: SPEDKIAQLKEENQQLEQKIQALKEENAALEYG
In words: two-hybrid library CC1.

The target of test [10] is T10, P9.
T10 chain: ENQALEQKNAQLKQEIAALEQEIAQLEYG
In words: two-hybrid library CC1. The settings on record: mean of both orientations.

Test [11] has as its target T11, 4H968-bN.
T11 chain: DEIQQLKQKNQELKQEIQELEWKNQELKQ
In words: two-hybrid library CCNG1.

Test [12] addresses T12, 4H953-bN.
T12 chain: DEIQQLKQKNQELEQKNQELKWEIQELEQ
In words: two-hybrid library CCNG1.

The target in test [13] is T13, 4H575-bN.
T13 chain: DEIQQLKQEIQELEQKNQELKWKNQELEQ
In words: two-hybrid library CCNG1.

Test [14] has as its target T14, 4H918-bN.
T14 chain: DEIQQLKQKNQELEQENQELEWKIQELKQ
In words: two-hybrid library CCNG1.

The target in test [15] is T15, 4H683-bN.
T15 chain: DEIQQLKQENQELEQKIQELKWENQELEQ
In words: two-hybrid library CCNG1.

Test [16] addresses T16, 4H780-bN.
T16 chain: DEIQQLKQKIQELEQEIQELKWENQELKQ
In words: two-hybrid library CCNG1.

Test [17] has as its target T17, 4H754-bN.
T17 chain: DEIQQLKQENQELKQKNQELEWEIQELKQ
In words: two-hybrid library CCNG1.

Test [18] addresses T18, 4H797-bN.
T18 chain: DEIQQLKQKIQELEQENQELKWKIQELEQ
In words: two-hybrid library CCNG1.

Test [19] addresses T19, 4H855-bN.
T19 chain: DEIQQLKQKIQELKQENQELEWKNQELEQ
In words: two-hybrid library CCNG1.

Test [20] concerns the target T20, 4H3056-AA.
T20 chain: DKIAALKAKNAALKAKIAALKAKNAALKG
In words: two-hybrid library CCmax. The settings on record: mean of both orientations.

The target in test [21] is T21, 4H3133-AA.
T21 chain: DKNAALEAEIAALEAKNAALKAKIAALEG
In words: two-hybrid library CCmax. To be noted: mean of both orientations.

Test [22] deals with T22, 4H697-AA.
T22 chain: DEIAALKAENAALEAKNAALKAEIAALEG
In words: two-hybrid library CCmax. The settings on record: mean of both orientations.

Test [23] deals with T23, 4H2907-AA.
T23 chain: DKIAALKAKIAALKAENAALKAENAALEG
In words: two-hybrid library CCmax.

Test [24] has as its target T24, 4H3588-AA.
T24 chain: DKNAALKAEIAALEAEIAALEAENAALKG
In words: two-hybrid library CCmax. The settings on record: mean of both orientations.

Test [25] addresses T25, 4H3697-AA.
T25 chain: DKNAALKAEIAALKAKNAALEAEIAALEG
In words: two-hybrid library CCmax. The settings on record: mean of both orientations.

Test [26] addresses T26, 4H3378-AA.
T26 chain: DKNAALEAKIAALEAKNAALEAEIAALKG
In words: two-hybrid library CCmax. To be noted: mean of both orientations.

Test [27] has as its target T27, 4H3162-AA.
T27 chain: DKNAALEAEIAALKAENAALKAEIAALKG
In words: two-hybrid library CCmax. To be noted: mean of both orientations.

In test [28] the target is T28, 4H340-AA.
T28 chain: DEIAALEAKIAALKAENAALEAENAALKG
In words: two-hybrid library CCmax. The settings on record: mean of both orientations.

Test [29] deals with T29, 4H3606-AA.
T29 chain: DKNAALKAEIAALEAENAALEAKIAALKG
In words: two-hybrid library CCmax. The settings on record: mean of both orientations.

In test [30] the target is T30, 4H384-AA.
T30 chain: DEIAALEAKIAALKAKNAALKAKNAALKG
In words: two-hybrid library CCmax. The settings on record: mean of both orientations.

Test [31] deals with T31, 4H982-AA.
T31 chain: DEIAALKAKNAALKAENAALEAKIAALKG
In words: two-hybrid library CCmax. To be noted: mean of both orientations.

For test [32], the target named is T32, 4H32-AA.
T32 chain: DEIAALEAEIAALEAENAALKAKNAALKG
In words: two-hybrid library CCmax. The settings on record: mean of both orientations.

Test [33] deals with T33, 4H3718-AA.
T33 chain: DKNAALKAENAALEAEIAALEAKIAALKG
In words: two-hybrid library CCmax. The settings on record: mean of both orientations.

Test [34] concerns the target T34, 4H3865-AA.
T34 chain: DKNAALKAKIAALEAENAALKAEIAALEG
In words: two-hybrid library CCmax. The settings on record: mean of both orientations.

The target of test [35] is T35, 4H3413-AA.
T35 chain: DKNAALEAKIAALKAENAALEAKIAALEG
In words: two-hybrid library CCmax. The settings on record: mean of both orientations.

Test [36] has as its target T36, 4H3631-AA.
T36 chain: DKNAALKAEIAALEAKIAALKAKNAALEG
In words: two-hybrid library CCmax. To be noted: mean of both orientations.

In test [37] the target is T37, 4H730-bN.
T37 chain: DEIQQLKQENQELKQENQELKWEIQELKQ
In words: two-hybrid library CCNG1.

Test [38] has as its target T38, 4H932-bN.
T38 chain: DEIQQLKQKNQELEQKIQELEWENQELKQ
In words: two-hybrid library CCNG1.

For test [39], the target named is T39, 4H56-bN.
T39 chain: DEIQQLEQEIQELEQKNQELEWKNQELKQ
In words: two-hybrid library CCNG1.

In test [40] the target is T40, 4H349-bN.
T40 chain: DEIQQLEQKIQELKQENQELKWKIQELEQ
In words: two-hybrid library CCNG1.

For test [41], the target named is T41, 4H949-bN.
T41 chain: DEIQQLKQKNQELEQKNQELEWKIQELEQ
In words: two-hybrid library CCNG1.

Test [42] addresses T42, 4H796-bN.
T42 chain: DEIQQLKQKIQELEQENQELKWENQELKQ
In words: two-hybrid library CCNG1.

As for DKNQELEKKIEELERKNWELEKKIQELER [4H3381-bH], the interaction score in [1] was -1.42; in test [2], -0.263; in test [3], -1.78; in test [4], 0.43; in [5], 1.27; in [6], -1.42. Besides, in test [7], the interaction score was -1.28.

Consider SPEDKIAQLKEENQQLEQKIQALKEENAALEYG [P8], for which the interaction score is -2.75 in test [8], -2.5 in test [9] and -1.88 in test [10].

DEIQQLKQEIQELEQKNQELKWKNQELEQ [4H575-bN]: the interaction score in [11] was -0.976; in [12] it was 0.476; in test [13] it was -0.842; in test [14], 0.56; in test [15], 0.443; in [16] it was -0.38. Moreover, the figures for the interaction score in test [17], in test [18] and in test [19] were -2.08, -1.51 and 0.475, respectively.

For the molecule DKIAALKAKIAALKAENAALKAENAALEG [4H2907-AA], the interaction score in [20] was -2.08; in test [21] it was -1.24; in test [22] it was -1.18; in [23], -0.959; in test [24], 1.57; in [25], -1.97. In addition, the interaction score is -1.66 in test [26]; -1.39 in test [27]; 1.31 in test [28]; 0.48 in test [29]; 1.15 in test [30]; -1.58 in test [31]. For the same molecule, the interaction score in [32] is 2.38; in [33], -1.65; in test [34] it was -1.75; in test [35] it was -2.21; in [36], -1.81.

For the molecule DEIQQLEQKIQELKQENQELKWKIQELEQ [4H349-bN], the interaction score is -1.05 in [37]; -0.258 in test [38]; -0.3 in test [39]; -1.89 in test [40]; -0.958 in [41]; -0.249 in test [42].
